Target: T1, MNV P domain (protruding domain of the capsid protein VP1 of murine norovirus) (murine norovirus (MNV), strain CW3, UniProt Q80J94 225-541)
T1 chain: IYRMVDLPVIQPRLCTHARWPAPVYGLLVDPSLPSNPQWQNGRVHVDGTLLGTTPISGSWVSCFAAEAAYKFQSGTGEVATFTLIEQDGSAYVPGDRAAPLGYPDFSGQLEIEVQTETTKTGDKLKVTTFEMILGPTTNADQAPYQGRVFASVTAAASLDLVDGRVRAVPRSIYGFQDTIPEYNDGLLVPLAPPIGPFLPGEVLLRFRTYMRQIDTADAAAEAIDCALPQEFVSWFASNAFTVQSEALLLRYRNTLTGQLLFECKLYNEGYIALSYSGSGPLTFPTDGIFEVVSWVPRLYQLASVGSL
Assay: ITC

B1: Nanobody NB-5829 (VHH)
VHH: QVQLQESGGGLVEAGGSLRLSCLGSGLTFSRYAMGWFRQAPGKEREFVASITRSGGSPNYADSVKGRFTISRDNAKNTVYLQMSSLKPEDTAVYYCAGRGSVYYDVWGQGTQVTVSS
Binder B1 has a Kd of 1.4 nM.

Reference: paper doi:10.1101/2020.02.07.938506 (2020)
